For 5 molecules, EC50 results are on record in patent US20260226168A1 (published 2026).

A word on the EC50: it is the midpoint of the concentration-response curve. Low values mean higher potency in that assay, high ones lower potency in that assay.

Substitutions are numbered along the chain they refer to.

This test has as its target T1, human GPRC5D protein (UniProt Q9NZD1 1-345).
T1 chain: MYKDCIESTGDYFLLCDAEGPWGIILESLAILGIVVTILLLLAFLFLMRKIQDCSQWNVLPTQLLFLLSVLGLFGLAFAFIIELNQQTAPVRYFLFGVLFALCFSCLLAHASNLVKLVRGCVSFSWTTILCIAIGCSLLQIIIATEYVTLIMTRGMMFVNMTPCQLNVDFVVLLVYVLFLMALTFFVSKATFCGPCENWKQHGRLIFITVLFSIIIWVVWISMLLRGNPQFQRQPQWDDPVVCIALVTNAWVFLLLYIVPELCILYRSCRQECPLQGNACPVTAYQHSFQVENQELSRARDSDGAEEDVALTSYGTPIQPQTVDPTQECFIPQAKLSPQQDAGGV
The test is described as follows: FACS, cells with high expression of hGPRC5D. A general note: A flow cytometer gives signals particle by particle.

B1: Chi-169 (antibody, V domains shown)
VH: EVKLVESGGGLVKPGASLKLSCAASGFTFSNYGMSWVRQTSDKRLEWVASISSGGGRIYYPDNVKGRFTISRENAKNTLYLQMSSLKSEDTALYYCTRHAMDNWGQGTSVIVSS
VL: QIVLTQSPAIMSASPGEKVTMTCSASSSVSNMYWYQQKSGTSPKRWIYDTSKLASGVPARFSGSGSGTSYSLTISSMEAEDASTYYCQQWSSNPLTFGAGTTLELKR
B1 yielded an EC50 of 0.66 nM.

B2: Chi-105 (antibody, V domains shown)
VH: EVQLQQSGPELVKPGASVKMSCKASGYTFTDYYMNWVKQSHGKSLEWIGYIYPNNGGTGYNQRFKGKATLTADKSSSTAYMELRSLTSEDSAVYYCARWGGTRLGYYAMDYWGQGTSVTVSS
VL: DIVMTQSQKFMSTSVGDRVSVTCKASQNVGTNVVWYQQKPGQSPKLLIYWASTRHTGVPDRFTGSGSGTDFTLTISNVQSEDLADYFCQQYSRYPYTFGGGTKLEIKR
With B2, the EC50 was 1.44 nM.

B3: Chi-89 (antibody, V domains shown)
VH: EVQLVESGGDLVKPGGSLKLSCAASGFTFSSYGMSWVRQTPDKRLEWVATISSGGSYTYYPDSVKGRFTFSRDNAKNTLYLQMSSLKSEDTAMYYCVRQALRYHMDSWGQGTSVTVSS
VL: B2 VL with V34A, L46A, W50S, T53Y, H55Y, T56S, Y86F, S92Y, R93S, Y96W
B3 came in with an EC50 of 0.7 nM.

B4: Chi-131 (antibody, V domains shown)
VH: EVQLQQSGPELVKPGASVKMSCKASGYTFTNYVMHWVKQKPGQGLEWIGYFNPYNDGTNYNEKFKGKATLTSDKSSNTAYMELSSLTSEDSAVYYCARGGVRRYFDVWGAGTTVTVSS
VL: DIQMTQSPSSLSASLGERVSLTCRASQDIGSNLNWLQLGPDGTIKRLIYATFSLDSGVPKRFSGSRSGSDYSLTISSLESEDFVDYYCQQYANFPPTFGGGTKLEIKR
The molecule B4 showed an EC50 of 0.66 nM.

B5: Chi-128 (antibody, V domains shown)
VH: DVQLVESGGGLVQPGGSRKVSCAASGFTFSSFGMHWVRQAPEKGLEWVAYISRGSSTIYYADTVKGRFTISRDNPKNTLFLQMTSLRSEDTAMYYCARSGYGSSSYYFDYWGQGTTLTVSS
VL: ENVLTQSPAIMSASPREKVTMTCRASSSIRSSYLHWYQQKSGASPKLWIYSTSNLASGVPARFSGSGSGTSYSLTISSVEAEDAATYYCQQFSGYPLTFGGGTKLEIKR
In turn, B5 showed an EC50 of 0.76 nM. This EC50 and that of the molecule before are within 1.5-fold of each other.
